Reference: PMC11635287, “Molecular interactions of the chaperone CcmS and carboxysome shell protein CcmK1 that mediate β-carboxysome assembly” (Plant Physiology, 2024)

B2: CcmK1-His (His-tagged CcmK1 from Nostoc sp. PCC 7120) (natural protein, UniProt A0ACD6B949 1-114, looked up)
chain: MSIAVGMVETLGFPAVVEAADAMVKAARVTLVGYEKIGSGRVTVIVRGDVSEVQASVAAGVESVKRVNGGQVLSTHIIARPHENLEYVLPIRYTEDVEQFRENVNAIRPFGRRP
notes: CcmK1, carboxysome shell protein, Nostoc sp; GenBank BAB72824.1; synthesized gene in pET-22b(+); The His tag is named for the pull-down only; also called CcmK1 hexamer; source: E. coli BL21(DE3), purified (Ni2+-NTA, gel filtration)

Key:
[1] = target: CcmS-His (His-tagged CcmS from Nostoc sp. PCC 7120) (Nostoc sp. PCC 7120); assay: MST; His-tagged CcmS labelled with dye as target at 0.25 μM; non-labelled ligand in 2-fold steps, 16 capillaries; Monolith NT.115, 25 °C, 60% excitation power
[2] = target: CcmK1-ΔC12, His-tagged (C-terminus-truncated CcmK1 from Nostoc sp. PCC 7120) (Nostoc sp. PCC 7120); assay: SEC; gel filtration chromatography of CcmK1 or CcmK1-ΔC12 alone (Supplementary Figs. S4 and S5)
[3] = target: T1, CcmS-His (His-tagged CcmS from Nostoc sp. PCC 7120) (Nostoc sp. PCC 7120, UniProt A0ACD6B954 1-142, dye label on the His tag in the MST assays); assay: MST
T1 chain: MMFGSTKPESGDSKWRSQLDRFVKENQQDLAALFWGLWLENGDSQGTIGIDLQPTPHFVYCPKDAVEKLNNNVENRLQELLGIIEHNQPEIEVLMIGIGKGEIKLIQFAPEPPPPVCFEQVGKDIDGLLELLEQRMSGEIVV

[4] = target: the molecule itself; assay: SEC; gel filtration chromatography of CcmK1 or CcmK1-ΔC12 alone (Supplementary Figs. S4 and S5)
[5] = target: T2, CcmS-His (His-tagged CcmS from Nostoc sp. PCC 7120) (Nostoc sp. PCC 7120, UniProt A0ACD6B954 1-142, dye label on the His tag in the MST assays); assay: MST; His-tagged CcmS labelled with dye as target at 0.25 μM; non-labelled ligand in 2-fold steps, 16 capillaries; Monolith NT.115, 25 °C, 60% excitation power; conditions: both partners purified
T2 construct: CcmS, Nostoc sp; ccmS encodes a protein of 142 amino acids; GenBank BAB73249.1; synthesized gene in pET-22b(+); also called CcmS dimer; source: E. coli BL21(DE3), purified (Ni2+-NTA, gel filtration)

[6] = target: B2; assay: SEC + native gel or EMSA; molecular mass of the CcmS/CcmK1 complex by gel filtration chromatography and Native-PAGE (Supplementary Figs. S3B and S5A); conditions: both partners purified
[7] = target: the molecule itself; assay: crystal structure; CcmS mixed with CcmK1-C15 at a molar ratio of 1:10, space group P41212, 1.67 Å; 0.2 M lithium sulfate, 0.1 M Tris pH 8.5, 1.26 M ammonium sulfate, 18 °C

CcmK1-C12 (12-amino acid C-terminal peptide of CcmK1)
Kd [1]: 41.5 µM

CcmK1-ΔC12, His-tagged (C-terminus-truncated CcmK1 from Nostoc sp. PCC 7120) (domain or fragment)
stoichiometry N [2]: 6

B1: CcmK1-C15 R112A peptide (peptide)
chain: FRENVNAIRPFGARP
Kd [3]: 101 µM

B2
stoichiometry N [4]: 6
Kd [5]: 34.5 µM

B3: CcmS from Nostoc sp. PCC 7120 (as used for crystallization, Native-PAGE and gel filtration; tag not told) (natural protein, UniProt A0ACD6B954 1-142, looked up)
chain: MMFGSTKPESGDSKWRSQLDRFVKENQQDLAALFWGLWLENGDSQGTIGIDLQPTPHFVYCPKDAVEKLNNNVENRLQELLGIIEHNQPEIEVLMIGIGKGEIKLIQFAPEPPPPVCFEQVGKDIDGLLELLEQRMSGEIVV
notes: CcmS, Nostoc sp; ccmS encodes a protein of 142 amino acids; GenBank BAB73249.1; crystal structures PDB 8ZLH (alone) and 8ZLZ (with CcmK1-C15); also called CcmS dimer; purified CcmS; source: E. coli BL21(DE3), purified (Ni2+-NTA or Strep-tag XT, gel filtration)
stoichiometry N [6]: 2 CcmS dimers per CcmK1 hexamer
stoichiometry N [7]: 2
